Experiments:
[1] = test system: Pancreatin; type: in vitro ADME, Porcine
Description: Control samples were protease-free.
Analyses were performed using an Agilent 1100 series system.

[2] = Intact half-life during simulated gastric fluid (SGF) digestion; settings: for Half-life: purified proteins, chip electrophoresis
[3] = Thermostability, temperature of aggregation (ProteoStat Thermal Shift); type: physicochemical; design: key to Tagg: temperature in °C
Description: The thermostability of proteins in a buffer cocktail of Citric Acid and Dibasic Sodium Phosphate over a pH range of 2.8 to 7.1 (preparation described above in Table E31B) was determined using the ProteoStat® Thermal Shift Stability Kit (Enzo Life Sciences) according to the manufacturer's standard protocol. Briefly, protein solutions (˜10 mg/ml) containing 1× ProteoStat TS Detection Reagent were heated from 25° C. to 95° C. at a rate of 0.5° C. per 30 sec using a real-time PCR (rtPCR) thermocycler (BioRad) equipped with a plate reader (SynergyMx, Biotek) while monitoring the fluorescence with a Texas Red filter.

[4] = SGF digest of 168 nutritive polypeptide library, intact protein by LC-MS/MS; type: in vitro ADME; settings: for % Intact Protein at 10 min: 168 nutritive polypeptide library SGF digest, LC-MS/MS spectral counts; for % Remaining at 10 min: 168 nutritive polypeptide library, LC-MS/MS
Outline: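 A 168-protein IMAC-purified recombinant library was digested in simulated gastric fluid and the 0 and 10 min samples were profiled by SDS-PAGE fractionation, in-gel trypsin digestion and nanoLC-MS/MS. Percent intact protein at 10 min is the ratio of spectral counts (t10/t0), summed over the peak fraction and two flanking fractions. Filters were 1% FDR and at least two unique peptides.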

[5] = pH solubility; type: physicochemical; settings: for pH Range where Protein is >80% detected as Soluble and A650 <1 OD: Low: lower pH; for pH Range where Protein is >80% detected as Soluble and A650 <1 OD: High: upper pH
Description: pH Solubility. […] Protein was either lyophilized and then resuspended in buffer cocktail mixtures, or concentrated and then spiked into buffer cocktail mixtures at a final protein concentration of 5 to 30 mg/ml. As a control, protein was also dissolved in a solution of 8 M urea. Protein solutions were shaken for 10 min at room temperature. Turbidity of proteins was determined by measuring the absorbance of protein solutions at 650 nm. The protein solution was then centrifuged for 10 min at 1100×g to pellet undissolved or precipitated protein. The soluble protein fraction (supernatant) was sampled and protein concentration was measured by one or more of the following methods: Coomassie Plus Protein Assay (Pierce), Chip electrophoresis, gel electrophoresis, and/or absorbance at 280 nm. The pH range over which select proteins remained greater than 80% soluble as determined by Bradford and the A650 value are listed in Table E31C.

[6] = test system: SEQID-00338 kinase activity (AMP + ATP→ADP); experiment: Kinase activity of SEQID-00338 (ADP-Glo Max Assay); type: biochemical; settings: 7 μg/mL, 30 minute reaction at 30° C.
Description: The ADP-Glo™ Max Assay was obtained from Promega (Catalog number V7001, Madison, Wis.). Adenosine Monophosphate was obtained from Sigma-Aldrich (Catalog number A1752, St. Louis, Mo.). 5× Kinase Buffer was prepared w/ 1.211 g Tris Base (Catalog number BP152-2, Fisher Bioreagents, Pittsburgh, Pa.), 692 μL 12% hydrochloric acid solution (Catalog number BDH3026-500MLP, VWR, Radnor, Pa.), 10.0 mL 500 mM magnesium chloride (Catalog number BP214-500, Fisher Bioreagents, Pittsburgh, Pa.) and the volume brought to 50 mL with MilliQ water and filtered through 0.22 μm PES filter (Catalog number SCGP00525, Millipore, Billerica, Mass.) into a sterile 50 mL tube.
Twelve his-tag purified mutant proteins and the wild-type protein at 35 μg/mL in Tris buffer were serially diluted to 7.0 and 1.4 μg/mL. Prepared kinase reaction mix at 0.5 mM AMP/0.5 mM ATP to test for activity and at 0 mM AMP/0 mM ATP to assay background activity by diluting 5× Kinase Buffer with appropriate volumes of 10 mM AMP and 10 mM ATP in MilliQ water. Duplicate reactions were prepared by mixing 9 μL of the reaction mixture with 6 μL of diluted SEQID-00338, mixing by pipetting up and down and dispensing 5 μL into a 384-well white OptiPlate (PerkinElmer, Waltham, Mass.). An ADP standard curve was prepared by serially diluting 4 mM ADP in MilliQ water and adding kinase buffer to 1× for a standard at 0.0005, 0.001, 0.005, 0.01, 0.05, 0.1, 0.5, 1, 2, 3, and 4 mM ADP. The plate was covered with a foil plate seal and incubated at 30° C. for 30 min. Following the kinase reaction, 5 μL of ADP-Glo™ Reagent was added to each well. The plate was sealed with a foil plate seal and placed on a horizontal plate shaker at 450 rpm for 2 minutes at room temperature. The plate was removed from the plate shaker and incubated at room temperature for 40 minutes. The plate was then centrifuged for 15 seconds at 1109×rcf and 10 μL of ADP-Glo™ Max Detection Reagent was added. The plate was sealed with a foil plate seal and shaken on a horizontal plate shaker at 450 rpm at room temperature for 2 minutes. The plate was then removed from the plate shaker and incubated at room temperature for 60 minutes. The plate was centrifuged for 15 seconds at 1109×rcf and the luminescence read on an EnspireAlpha plate reader (PerkinElmer, Waltham, Mass.).
The ADP standard curve was used to determine the concentration of ADP in sample wells in the presence or absence of substrate. Concentrations were determined by performing a non-linear 4 parameter logistic on the X=log(X) transformed ADP standard luminescence values. […] Where the background concentration of ADP in the absence of substrate was calculable the average of those values were subtracted from the calculated ADP concentration in the substrate incubated wells. Activity knock out was calculated by percentage activity relative to purified wild-type protein at the same concentration.

[7] = native and modified forms of SEQID-00363, gel electrophoresis
[8] = SGF pH 1.5, pepsin:polypeptide 1:20 w/w, 37° C., intact protein

B1: Reduced and alkylated SEQID-00363: SEQID-00363 with disulfide bonds reduced and alkylated (protein)
chain: ATLDSWLSNEATVARTAILNNIGADGAWVSGADSGIVVASPSTDNPDYFYTWTRDSGLVLKTLVDLFRNGDTSLLSTIENYISAQAIVQGISNPSGDLSSGAGLGEPKFNVDETAYTGSWGRPQRDGPALRATAMIGFGQWLLDNGYTSTATDIVWPLVRNDLSYVAQYWNQTGYDLWEEVNGSSFFTIAVQHRALVEGSAFATAVGSSCSWCDSQAPEILCYLQSFWTGSFILANFDSSRSGKDANTLLGSIHTFDPEAACDDSTFQPCSPRALANHKEVVDSFRSIYTLNDGLSDSEAVAVGRYPEDTYYNGNPWFLCTLAAAEQLYDALYQWDKQGSLEVTDVSLDFFKALYSDAATGTYSSSSSTYSSIVDAVKTFADGFVSIVETHAASNGSMSEQYDKSDGEQLSARDLTWSYAALLTANNRRNSVVPASWGETSASSVPGTCAATSAIGTYSSVTVTSWPSIVATGGTTTTATPTGSGSVTSTSKTTATASKTSTSTSSTSCTTPTAVAVTFDLTATTTYGENIYLVGSISQLGDWETSDGIALSADKYTSSDPLWYVTVTLPAGESFEYKFIRIESDDSVEWESDPNREYTVPQACGTSTATVTDTWR
modifications: disulfides reduced and alkylated; Aspergillus niger
With B1 the “Free Leu (μM) at 120 min time point of Pancreatin digest” value (from here on “Free Leu (μM) at 120 min time point”) [1] was 598.1 µM and the “SGF Half-life (t½)” value [2, 7] was 1220 s.

B2: Heat-denatured SEQID-00363: SEQID-00363 30 g/L in 10% PBS rapidly heated to 95° C. (protein)
chain: B1 chain
modifications: heat-denatured; Aspergillus niger
For B2, the “Free Leu (μM) at 120 min time point” value [1] was 763.5 µM and the “SGF Half-life (t½)” value [2, 7] was 1220 s.

B3: SEQID-00605: nutritive polypeptide naturally produced in Mushroom, recombinantly expressed in E. coli (protein, listed as Agaricus bisporus)
chain: MLEFTLNDGNRIPAIAFGTGTALYNQDASAFVRLAIETGITHLDGAQMYENEETLGKGIKSSGKPRSELFITTKLHILKPGQTVRETLVESLGKIGVDYVDLFLIHDPTANRKEATLSEIWSQLEALKNEGLTKSIGVSNFKVEDLNEILPGAKIIPAVNQIEFHPYVLKAASPIIELCKAKGIIVASYGGQTPIVRATDGPLKDLLPKIRERLEQTRGSPVTEGQVLTKWLLQKNVIAISTSSKESRIKEFLSTVDVPDLTKQEIESIDNAGSTIHKRIYMKHIFNE
modifications: source: /note="var. bisporus"; source: /note="strain H97 / ATCC MYA-4626 / FGSC 10389"
notes: nutritive polypeptide naturally produced in Mushroom, recombinantly expressed in E. coli
With B3 the “Free Leu (μM) at 120 min time point” value [1] was 937.1 µM, the Tagg ([3]; pH 4.6) was 40.5 and the Tagg ([3]; pH 5.0) was 33.5. The Tagg ([3]; pH 5.6) was 37, the Tagg ([3]; pH 6.0) was 44.5 and the Tagg ([3]; pH 6.5) was 38.5. For the same molecule, the Tagg ([3]; pH 7.1) was 39, the “% Intact Protein at 10 min” value [4] was 0% and the “% Remaining at 10 min” value [4] was 0%. For the same molecule, the “SGF Half-life (t½)” value [2, 8] was 12 s, the “Half-life” value [2] was 12 s and the “pH Range where Protein is >80% detected as Soluble and A650 <1 OD: Low” value [5] was 5.6. The “pH Range where Protein is >80% detected as Soluble and A650 <1 OD: High” value [5] was 7.1.

B4: D91I: single amino acid mutant of SEQID-00338, position 91 (protein, listed as Saccharomyces cerevisiae)
chain: MSSSESIRMVLIGPPGAGKGTQAPNLQERFHAAHLATGDMLRSQIAKGTQLGLEAKKIMDQGGLVSDDIMVNMIKDELTNNPACKNGFILIGFPRTIPQAEKLDQMLKEQGTPLEKAIELKVDDELLVARITGRLIHPASGRSYHKIFNPPKEDMKDDVTGEALVQRSDDNADALKKRLAAYHAQTEPIVDFYKKTGIWAGVDASQPPATVWADILNKLGKD
modifications: source: /note="strain ATCC 204508 / S288c"
For B4, the “AVG percent activity relative to purified wild-type protein” value [6] was 0.4%.

B5: SEQID-00298 (BS): nutritive polypeptide naturally produced in Cow (protein, listed as Bos taurus)
chain: MGLSDGEWQLVLNAWGKVEADVAGHGQEVLIRLFTGHPETLEKFDKFKHLKTEAEMKASEDLKKHGNTVLTALGGILKKKGHHEAEVKHLAESHANKHKIPVKYLEFISDAIIHVLHAKHPSDFGADAQAAMSKALELFRNDMAAQYKVLGFHG
In the case of B5, the “Free Leu (μM) at 120 min time point” value [1] is reported as 1030.8 µM and the “SGF Half-life (t½)” value [2, 8] is reported as 6 s.

B6: SEQID-00485: nutritive polypeptide naturally produced in Chickpea, recombinantly expressed in E. coli (protein, listed as Cicer arietinum)
chain: MTKTGYINAAFRSSRNNEAYLFINDKYVLLDYAPGTSNDKVLYGPSFVRDGYKSLAKTIFGTYGIDCSFDTEYNEAFIFYENFCARIDYAPHSDKDKIISGPKKIADMFPFFKGTVFENGIDAAFRSTKGKEVYLFKGDKYARIDYLTNRLVQNIKSISDGFPCLRGTIFEAGMDSAFASHKTNEAYLFKGEYYARINFTPGSTNDIMGGVKKTLDYWPSLRGIIPLE
In the case of B6, the “Free Leu (μM) at 120 min time point” value [1] is reported as 764.9 µM, the Tagg ([3]; pH 5.0) is reported as 31.5 and the Tagg ([3]; pH 5.6) is reported as 34.5. It also gave a Tagg ([3]; pH 6.0) of 36, a Tagg ([3]; pH 6.5) of 36.5 and a Tagg ([3]; pH 7.1) of 36. The “% Intact Protein at 10 min” value [4] was 0%, the “% Remaining at 10 min” value [4] was 0% and the “SGF Half-life (t½)” value [2, 8] was 30 s. For the same molecule, the “Half-life” value [2] was 30 s, the “pH Range where Protein is >80% detected as Soluble and A650 <1 OD: Low” value [5] was 4.6 and the “pH Range where Protein is >80% detected as Soluble and A650 <1 OD: Other” value ([5]; other pH) was 2.8. The “pH Range where Protein is >80% detected as Soluble and A650 <1 OD: High” value [5] was 7.1.

Reference: patent publication US20160228506A1, “Compositions and Formulations for Prevention and Reduction of Tumorigenesis, Cancer Cell Proliferation and Invasion, and Methods of Production and Use Thereof in Cancer Treatment” (PRONUTRIA, INC., priority 2013, published 2016)
